We go through six molecules from PMC11551741 (Nucleic Acids Research, 2024).

In data set [1] the target is unmodified nucleosome core particle (H2A, H2B, H3.1, H4 and 147 bp Widom 601 DNA) (human) (UniProt P0C0S8). The data set is described as follows: native gel or EMSA; 10 nM nucleosome core particles with rising SLF1^ARD or SLF1^ARD_4A, room temperature, 20 mins; Diamond DNA stain.
Data set [2] deals with RAD18 peptide 437-452 (Homo sapiens) (UniProt Q9NS91). The data set is described as follows: ITC. The note with it: cited from earlier work.
The next data set has as its target SLF1 tBRCT, 6-208 (UniProt Q9BQI6). The data set is described as follows: thermal melt (SYPRO Orange) of SLF1tBRCT.
Data set [3] deals with T1, SLF1^tBRCT (tandem BRCT domain of SLF1, residues 6-208) (human, UniProt Q9BQI6 6-208).
T1 construct: SLF1 (SMC5-SMC6 complex localization factor 1), human, tandem BRCT domain, residues 6-208; pHAT4 construct; also called wild-type SLF1^tBRCT; not shown: His-tag, N-terminal, cleaved
T1 sequence (looked up): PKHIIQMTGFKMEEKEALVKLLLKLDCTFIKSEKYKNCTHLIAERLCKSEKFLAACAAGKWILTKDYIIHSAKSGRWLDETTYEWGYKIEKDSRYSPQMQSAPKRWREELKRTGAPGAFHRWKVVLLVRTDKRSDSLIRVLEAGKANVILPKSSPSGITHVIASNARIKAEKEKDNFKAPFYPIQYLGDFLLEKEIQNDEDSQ
Nature of the data set: thermal melt (SYPRO Orange); 10 μM SLF1^tBRCT proteins with 200 μM RAD18 peptides; 25-95°C; Tm of SLF1^tBRCT. The note with it: both partners purified.

The target in the next data set is BRCA1 tBRCT (UniProt P38398 1646-1859). Nature of the data set: EMSA; no interaction observed; DNA EMSA: 40 mM Tris pH 7.5, 100 mM KCl, 0.2 mM DTT, 10% glycerol, 20 ug/ml BSA, 10 nM DNA, 4 C 30 min; NCP EMSA: 10 nM NCP, room temperature 20 min; FP: 20 mM. Conditions: protein: recombinant; tags: N-terminal non-cleavable His-tag; label: 5' 6-FAM on strand 1; blunt. For orientation: In EMSA bound probe runs differently from free probe, usually more slowly.

The next data set has as its target T2, SLF1 ARD (Homo sapiens, UniProt Q9BQI6 802-934).
T2 sequence: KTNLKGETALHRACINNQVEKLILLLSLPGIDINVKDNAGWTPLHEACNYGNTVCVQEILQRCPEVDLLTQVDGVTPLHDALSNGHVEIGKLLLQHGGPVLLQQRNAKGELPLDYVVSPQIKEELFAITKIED
Nature of the data set: EMSA; no shift; DNA EMSA: 40 mM Tris pH 7.5, 100 mM KCl, 0.2 mM DTT, 10% glycerol, 20 ug/ml BSA, 10 nM DNA, 4 C 30 min; NCP EMSA: 10 nM NCP, room temperature 20 min; FP: 20 mM. Conditions: protein: recombinant; tags: none (His-tag cleaved by TEV); label: 5' 6-FAM on strand 1; blunt.

In data set [4] the target is T3, SLF1 tBRCT (Homo sapiens, UniProt Q9BQI6 6-208).
T3 sequence: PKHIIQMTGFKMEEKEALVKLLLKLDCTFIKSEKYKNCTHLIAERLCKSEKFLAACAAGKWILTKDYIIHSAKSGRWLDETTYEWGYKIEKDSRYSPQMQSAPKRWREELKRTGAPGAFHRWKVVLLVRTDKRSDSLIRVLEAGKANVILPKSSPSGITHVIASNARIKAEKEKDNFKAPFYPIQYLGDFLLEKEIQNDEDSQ
Nature of the data set: fluorescence polarization; 20 mM Tris pH 8.0, 150 mM NaCl, 5% glycerol, room temperature; DNA EMSA: 40 mM Tris pH 7.5, 100 mM KCl, 0.2 mM DTT, 10% glycerol, 20 ug/ml BSA, 10 nM DNA, 4 C 30 min; NCP EMSA: 10 nM NCP, room temperature 20 min; FP: 20 mM. The note with it: protein: recombinant; tags: none (His-tag cleaved by TEV); label: 5' 6-FAM on strand 1; blunt. (In fluorescence polarisation assays a small probe gives low polarisation when free and higher when bound to something large.)

A further data set has as its target T4, SLF1 tBRCT K56A (Homo sapiens, UniProt Q9BQI6 6-208, K56A).
T4 sequence: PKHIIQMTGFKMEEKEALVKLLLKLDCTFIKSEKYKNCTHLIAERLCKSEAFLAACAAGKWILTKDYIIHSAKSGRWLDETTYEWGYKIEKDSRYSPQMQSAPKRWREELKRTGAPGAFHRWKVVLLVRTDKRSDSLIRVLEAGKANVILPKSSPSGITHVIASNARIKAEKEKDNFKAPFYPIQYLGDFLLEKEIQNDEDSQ
Nature of the data set: thermal melt; 30 uM DNA, 10 uM protein; DNA EMSA: 40 mM Tris pH 7.5, 100 mM KCl, 0.2 mM DTT, 10% glycerol, 20 ug/ml BSA, 10 nM DNA, 4 C 30 min; NCP EMSA: 10 nM NCP, room temperature 20 min; FP: 20 mM. Conditions: protein: recombinant; tags: none (His-tag cleaved by TEV); blunt.

Another data set has as its target T5, SLF1 tBRCT T13A (Homo sapiens, UniProt Q9BQI6 6-208, T13A).
T5 sequence: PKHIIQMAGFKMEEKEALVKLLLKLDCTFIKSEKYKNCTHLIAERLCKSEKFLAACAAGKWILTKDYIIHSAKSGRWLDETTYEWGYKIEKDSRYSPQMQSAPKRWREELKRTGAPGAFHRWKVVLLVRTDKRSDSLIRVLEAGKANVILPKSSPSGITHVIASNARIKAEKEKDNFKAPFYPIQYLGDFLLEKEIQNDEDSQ
Described as above. Conditions: protein: recombinant; tags: none (His-tag cleaved by TEV); blunt.

Data set [5] concerns the target T3, SLF1 tBRCT. The data set is described as above. The note with it: protein: recombinant; tags: none (His-tag cleaved by TEV); blunt.

Non-standard residues stand in square brackets, D forms with d. pS = N[C@@H](COP(=O)(O)O)C(=O)O

By Kd is commonly meant a measure of binding affinity in units of concentration. Broadly, the ΔTm is the shift of the melting midpoint relative to a reference.

SLF1 tBRCT, 6-208, sequence (Q9BQI6 whole entry, looked up, the tested form may be a part): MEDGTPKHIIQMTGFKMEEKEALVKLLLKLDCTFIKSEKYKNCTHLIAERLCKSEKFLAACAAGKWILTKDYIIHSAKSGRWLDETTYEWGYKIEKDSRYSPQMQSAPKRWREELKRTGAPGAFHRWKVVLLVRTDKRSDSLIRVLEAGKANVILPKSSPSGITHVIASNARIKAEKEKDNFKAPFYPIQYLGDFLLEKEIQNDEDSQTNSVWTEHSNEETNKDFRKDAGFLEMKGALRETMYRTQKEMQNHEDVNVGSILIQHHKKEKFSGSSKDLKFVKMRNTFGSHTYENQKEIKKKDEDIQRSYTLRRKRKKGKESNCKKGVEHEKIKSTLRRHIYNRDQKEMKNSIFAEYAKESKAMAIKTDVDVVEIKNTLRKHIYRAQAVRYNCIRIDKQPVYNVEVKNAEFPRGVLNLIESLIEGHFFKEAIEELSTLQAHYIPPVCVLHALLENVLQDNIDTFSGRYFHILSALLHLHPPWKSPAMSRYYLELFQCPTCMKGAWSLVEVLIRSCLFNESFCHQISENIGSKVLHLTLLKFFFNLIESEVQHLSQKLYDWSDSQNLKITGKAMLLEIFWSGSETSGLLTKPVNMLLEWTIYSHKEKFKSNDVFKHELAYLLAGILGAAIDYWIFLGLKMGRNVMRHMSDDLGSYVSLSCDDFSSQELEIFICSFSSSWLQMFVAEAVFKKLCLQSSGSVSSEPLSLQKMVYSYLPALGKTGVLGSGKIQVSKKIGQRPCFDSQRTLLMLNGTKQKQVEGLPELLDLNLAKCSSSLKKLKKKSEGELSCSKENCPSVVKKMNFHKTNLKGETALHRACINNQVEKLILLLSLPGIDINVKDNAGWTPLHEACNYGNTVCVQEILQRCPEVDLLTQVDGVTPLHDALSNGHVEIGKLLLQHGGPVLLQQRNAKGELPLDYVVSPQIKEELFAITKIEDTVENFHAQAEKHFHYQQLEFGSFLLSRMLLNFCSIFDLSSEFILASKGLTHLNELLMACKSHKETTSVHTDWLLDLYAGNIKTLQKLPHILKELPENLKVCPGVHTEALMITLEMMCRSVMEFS
BRCA1 tBRCT, sequence (P38398 1646-1859): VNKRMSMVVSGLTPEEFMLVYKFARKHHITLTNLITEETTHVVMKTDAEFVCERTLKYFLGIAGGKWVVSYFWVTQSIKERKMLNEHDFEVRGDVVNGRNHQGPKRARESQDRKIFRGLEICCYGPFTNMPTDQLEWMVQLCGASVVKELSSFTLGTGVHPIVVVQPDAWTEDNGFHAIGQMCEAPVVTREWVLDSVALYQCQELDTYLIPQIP

In data set [1], “SLF1^ARD (ankyrin repeat domain of SLF1, residues 802-934), His-tag cleaved (from UniProt Q9BQI6 802-934) (domain or fragment)” returned an affinity of 1 to 5 µM.

With SLF1 tBRCT (from UniProt Q9BQI6), the Kd in data set [2] is 12 nM.

Take “RAD18 441-446 (from UniProt Q9NS91) pS442/pS444 peptide”: the “other: ΔTm vs SLF1tBRCT alone” value with SLF1 tBRCT, 6-208 (reference: pS442 peptide, sites S444) is “stronger; reference 0.8”; with SLF1 tBRCT, 6-208 (reference: pS444 peptide, sites S442), “stronger; reference 0.4”; with SLF1 tBRCT, 6-208 (reference: unphosphorylated peptide SSSSDI, sites S442,S444), 3.7 °C.

B1: RAD18(442p,444p)^peptide (S(pS)S(pS)DI) (peptide)
peptide: Ac-S[pS]S[pS]DI-NH2
SMILES: CC[C@H](C)[C@H](NC(=O)[C@H](CC(=O)O)NC(=O)[C@H](COP(=O)(O)O)NC(=O)[C@H](CO)NC(=O)[C@H](COP(=O)(O)O)NC(=O)[C@H](CO)NC(C)=O)C(N)=O
notes: RAD18, human, residues S441 to I446; also called double phosphorylated RAD18 peptide; double-phosphorylated hexapeptide; source: synthetic peptide (Biomatik)
As to B1, the thermal shift (ΔTm) in data set [3] is 3.7 °C.

B2: 50 bp DNA, 6-FAM (dsDNA)
DNA 1: TAAATGCCAATGCTGCTGATACGTACTCGGACTGATTCGGAACTGTAACG
DNA 2: CGTTACAGTTCCGAATCAGTCCGAGTACGTATCAGCAGCATTGGCATTTA
Regarding B2, the binding result with BRCA1 tBRCT and in the data set with SLF1 ARD was “no binding” throughout. Further, the dissociation constant (Kd) with SLF1 tBRCT [4] stood at 430 nM.

B3: 50 bp DNA, unlabelled (dsDNA)
DNA 1: TAAATGCCAATGCTGCTGATACGTACTCGGACTGATTCGGAACTGTAACG
DNA 2: CGTTACAGTTCCGAATCAGTCCGAGTACGTATCAGCAGCATTGGCATTTA
As for B3, the binding signal with SLF1 tBRCT K56A is 6.4 C (delta Tm); in the data set with SLF1 tBRCT T13A, 6.9 C (delta Tm); with SLF1 tBRCT [5], 7.1 C (delta Tm).
